± gives the half width of the 95% confidence interval.

The nature of data set [1]: folding stability dG unfold from trypsin proteolysis; higher = more stable. An outline of the steps:
(§1)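 Designed mini-proteins with no cysteine and under 80 residues were kept only if AlphaFold2 dimer inter-PAE was above 15. In a PA-tagged cDNA display construct, they were digested with trypsin and chymotrypsin and then sequenced. K50 was inferred by Bayesian fitting of counts, and unfolding free energy was derived per protease or combined against a sequence-predicted unfolded-state K50 and a shared folded-state K50.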

The nature of data set [2]: folding stability dG unfold from chymotrypsin proteolysis; higher = more stable. A digest of the protocol: as §1
Data set [3] in a line: folding stability dG unfold (combined trypsin and chymotrypsin); higher = more stable. An outline of the steps:
as §1

With “SAGGSAPGVTLVSSTSSTSTLPDGTTKSTTTTTYKSPTGTYTTTTTTTVDTSKGTTTPTTTVTPVSSAGGSA [r2_185_JUSTAS]”, the “folding stability dG unfold” value was determined as 0.645 ± 0.064 kcal/mol in data set [1], 0.61 ± 0.16 kcal/mol in data set [2] and 0.692 ± 0.14 kcal/mol in data set [3].
Taken in the same sequence, the figures for “SAGGSAPIKIKTADGKTITVNAKDLSLELLKKADKVIITKPDGKKIELPAGAKIKKGDTVTIKIVKSAGGSA [r15_733_TrROS_Hall]” were 0.153 ± 0.11 kcal/mol, -0.437 ± 0.21 kcal/mol and -0.336 ± 0.33 kcal/mol.
Taken in the same sequence, the figures for “SAGGSAPKNVTIEFPIMAKVPDPKWAIDEARELARKQGFENTEIENIHVNPGDPNYVMIDVKMTIPSAGGSA [r15_183_TrROS]” were 0.249 ± 0.11 kcal/mol, 0.278 ± 0.17 kcal/mol and 0.326 ± 0.24 kcal/mol.
Consider “SAGGSAPLVATEVSVEGNTIVVRSVTRLPNGTLSEDVVLIELPPLPLPPPAPWSTFPETGRLRLGPSAGGSA [r15_335_JUSTAS]”, for which the “folding stability dG unfold” value in data set [1] stood at 0.159 ± 0.15 kcal/mol; in data set [2], 0.76 ± 0.21 kcal/mol; in data set [3], 0.481 ± 0.24 kcal/mol.
Taken in the same sequence, the figures for “SAGGSAPPAVEEIAKILEELFPGYRVVAEAEPVRDPETDEVLLRIRVAVFDENGKVILELEITLPLSAGGSA [r15_1048_TrMRF]” were 3.89 ± 0.054 kcal/mol, 4.3 ± 0.068 kcal/mol and 4.19 ± 0.07 kcal/mol.
Taken in the same sequence, the figures for “SAGGSAPPNIVRPYVRPFLIYNPNGEPAALGELVIFEAPEGRLILLRLRSLENGEELELPFLYPGESAGGSA [r15_819_TrMRF]” were 2.71 ± 0.071 kcal/mol, 3.453 ± 0.02 kcal/mol and 3.25 ± 0.037 kcal/mol.
As for “SAGGSAPPPPETVRIRVRITLPDGRTLEIEIEVSREEAERLAKELADRLRELGYEVKVEIVEVEEVSAGGSA [r2_274_TrROS_Hall]”, the “folding stability dG unfold” value in data set [1] turned out to be 4.34 ± 0.31 kcal/mol; in data set [2], 3.14 ± 0.28 kcal/mol; in data set [3], 4.51 ± 0.32 kcal/mol.
As to “SAGGSAPPQTIPIIIKDPNGKVRIEPVQFDPGPGNFNWDIEHPNGEKHTITFTGPPDDLPPGDYIKSAGGSA [r15_596_TrROS]”, the “folding stability dG unfold” value in data set [1] was -0.575 ± 0.13 kcal/mol; in data set [2], 1.37 ± 0.068 kcal/mol; in data set [3], 0.784 ± 0.17 kcal/mol.
“SAGGSAPSSELLEEEFETEDKSNNTTIKIYKVPGTGDYLIETTTPSGKKTKLTLGPLSESEAKGLISAGGSA [r15_295_JUSTAS]”: the “folding stability dG unfold” value was determined as 0.0974 ± 0.023 kcal/mol in data set [1], 0.32 ± 0.097 kcal/mol in data set [2] and 0.32 ± 0.059 kcal/mol in data set [3].
Take “SAGGSAPVEVRVSVEVLPDGTLRITVEFTLPNGEKLSVEFTIPLAPVPVVDLTSPEALFPALSLLSSAGGSA [r15_1018_TrMRF]”: the “folding stability dG unfold” value amounted to 2.43 ± 0.07 kcal/mol in data set [1], 2.41 ± 0.069 kcal/mol in data set [2] and 2.42 ± 0.17 kcal/mol in data set [3].
On to “SAGGSAPVKLVVVYDEKTGEYRILAETPEGPVVFPFPRELFENIPLEDIAKLLNLEITEAVIVPNPSAGGSA [r15_801_TrMRF]”, for which the results for the “folding stability dG unfold” value in data set [1], in data set [2] and in data set [3] were 2.63 ± 0.086 kcal/mol, 3.67 ± 0.13 kcal/mol and 3.38 ± 0.13 kcal/mol, respectively.
Taken in the same sequence, the figures for “SAGGSAPVVRVEIVVLGTGEVRTLTLEEAKRFLEAHPDKIDRVLVRVEVFEPDASTSDDVDPDGVPSAGGSA [r15_99_TrMRF]” were 2.03 ± 0.034 kcal/mol, 1.97 ± 0.021 kcal/mol and 2.04 ± 0.07 kcal/mol.
Taken in the same sequence, the figures for “SAGGSARIEPVGDYLVIEIPFRYPDGMEWYIEIVINPEEGKIPVDQYPPGDGEPVGEKTLPADEVKSAGGSA [r15_671_TrROS]” were 0.507 ± 0.14 kcal/mol, 2.27 ± 0.11 kcal/mol and 1.52 ± 0.23 kcal/mol.
Consider “SAGGSARIKIDPPGKIKVYYNGQPFTIKPGVELDIQRTDDMIVLRIRMRDPDGKPVGEFPFMFRIKSAGGSA [r15_424_TrROS]”, for which the entries for the “folding stability dG unfold” value in data set [1], in data set [2] and in data set [3] were 2.13 ± 0.073 kcal/mol, 2.59 ± 0.23 kcal/mol and 2.41 ± 0.24 kcal/mol, respectively.
On to “SAGGSARPELVEYRVRIGDVEVRVVLPEGLEELLRRIPDVEVEPVRRFEAPPPPVVLERSELGDFASAGGSA [r15_443_TrMRF]”, for which the “folding stability dG unfold” value in data set [1] stood at 1.56 ± 0.051 kcal/mol; in data set [2], 1.77 ± 0.11 kcal/mol; in data set [3], 1.71 ± 0.14 kcal/mol.
Taken in the same sequence, the figures for “SAGGSARPLYIKVQIRNPPNGKKKTIEIPIENMPPGDPEYYKEMARSIAEELQEQNGMEIEGIEIYSAGGSA [r15_1013_TrROS]” were 0.731 ± 0.06 kcal/mol, 0.023 ± 0.27 kcal/mol and 0.566 ± 0.19 kcal/mol.
Regarding “SAGGSASEELVEEIANIIKPALEEEGIEVERVEATAVTLPDGTVVIPVRVRTKDGPEVLEFNIVILSAGGSA [r15_232_TrMRF]”, the “folding stability dG unfold” value in data set [1] was 1.1 ± 0.027 kcal/mol; in data set [2], 1.235 ± 0.012 kcal/mol; in data set [3], 1.19 ± 0.038 kcal/mol.
In the case of “SAGGSASIEELLKEIIDNLKPGEKYKITIEVDGEEKTFTFTNKNGEKIEIVVKDGKIVSIKIEKLPSAGGSA [r15_175_TrROS_Hall]”, the “folding stability dG unfold” value in data set [1] amounted to 2.5 ± 0.4 kcal/mol; in data set [2] it was 4.21 ± 0.12 kcal/mol; in data set [3] it was 3.97 ± 0.3 kcal/mol.

The values above are taken from the supplement of paper PMC12764529.
